Source: the supplement of paper PMC9112550, “Optimization of the antimicrobial peptide Bac7 by deep mutational scanning” (BMC Biology, 2022)

test system: Escherichia coli TOP10; experiment: shrunken log2 fold change of peptide-encoding DNA abundance (4.5 h post-induction vs induction); higher = less antimicrobial activity (less host growth inhibition); details: time post-induction: 4.5 h; library: site-saturation at positions 5, 18, 19, 20
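Also: peptides expressed intracellularly from a pBAD plasmid library in pooled LB shake-flask culture, induced with 0.3% L-arabinose, DNA abundance read by NGS, three biological replicates, DESeq2 with apeglm shrinkage.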

Sequence | shrunken log2 fold change
RRIRMRPPRLPRPRPRPRFTPRP | 0.323
RRIRMRPPRLPRPRPRPRGCPRP | 1.08
RRIRMRPPRLPRPRPRPRKFPRP | 0.247
RRIRMRPPRLPRPRPRPRLLPRP | 0.421
RRIRMRPPRLPRPRPRPRLSPRP | 0.494
RRIRMRPPRLPRPRPRPRNQPRP | 0.484
RRIRMRPPRLPRPRPRPRPCPRP | 0.586
RRIRMRPPRLPRPRPRPRQLPRP | 0.691
RRIRMRPPRLPRPRPRPRRCPRP | 1.08
RRIRMRPPRLPRPRPRPRRIPRP | 0.767
RRIRMRPPRLPRPRPRPRRPPRP | 1.16
RRIRMRPPRLPRPRPRPRRRPRP | 1.53
RRIRMRPPRLPRPRPRPRSWPRP | 1.42
RRIRMRPPRLPRPRPRPRWGPRP | 0.279
RRIRMRPPRLPRPRPRPRYPPRP | 0.0438
RRIRMRPPRLPRPRPRPRYQPRP | -0.0321
RRIRMRPPRLPRPRPRPSAYPRP | 0.319
RRIRMRPPRLPRPRPRPSCEPRP | 0.541
RRIRMRPPRLPRPRPRPSDDPRP | 1.89
RRIRMRPPRLPRPRPRPSFGPRP | 0.0121

Sequence | shrunken log2 fold change
RRIRMRPPRLPRPRPRPSFLPRP | -0.121
RRIRMRPPRLPRPRPRPSFVPRP | -0.0144
RRIRMRPPRLPRPRPRPSGAPRP | 1.13
RRIRMRPPRLPRPRPRPSGSPRP | 0.133
RRIRMRPPRLPRPRPRPSIAPRP | -0.0688
RRIRMRPPRLPRPRPRPSIDPRP | 0.789
RRIRMRPPRLPRPRPRPSKIPRP | -0.0332
RRIRMRPPRLPRPRPRPSKVPRP | 0.167
RRIRMRPPRLPRPRPRPSLRPRP | 0.626
RRIRMRPPRLPRPRPRPSMCPRP | 0.0724
RRIRMRPPRLPRPRPRPSMSPRP | -0.024
RRIRMRPPRLPRPRPRPSPRPRP | 1.05
RRIRMRPPRLPRPRPRPSRMPRP | 0.454
RRIRMRPPRLPRPRPRPSSFPRP | -0.0557
RRIRMRPPRLPRPRPRPSSLPRP | -0.156
RRIRMRPPRLPRPRPRPSSNPRP | -0.142
RRIRMRPPRLPRPRPRPSTDPRP | 0.949
RRIRMRPPRLPRPRPRPSVYPRP | -0.335
RRIRMRPPRLPRPRPRPSWRPRP | 0.194
RRIRMRPPRLPRPRPRPSYFPRP | -0.293

Sequence | shrunken log2 fold change
RRIRMRPPRLPRPRPRPTCNPRP | -0.0778
RRIRMRPPRLPRPRPRPTDAPRP | 0.741
RRIRMRPPRLPRPRPRPTESPRP | 0.0389
RRIRMRPPRLPRPRPRPTEWPRP | 0.555
RRIRMRPPRLPRPRPRPTFDPRP | 0.558
RRIRMRPPRLPRPRPRPTICPRP | 0.0136
RRIRMRPPRLPRPRPRPTKAPRP | 0.26
RRIRMRPPRLPRPRPRPTKCPRP | 0.331
RRIRMRPPRLPRPRPRPTKVPRP | 0.126
RRIRMRPPRLPRPRPRPTLHPRP | 0.294
RRIRMRPPRLPRPRPRPTLIPRP | 0.00162
RRIRMRPPRLPRPRPRPTNHPRP | 0.0232
RRIRMRPPRLPRPRPRPTQKPRP | 0.168
RRIRMRPPRLPRPRPRPTQRPRP | 0.968
RRIRMRPPRLPRPRPRPTSEPRP | 0.511
RRIRMRPPRLPRPRPRPTTHPRP | 0.295
RRIRMRPPRLPRPRPRPTTKPRP | 0.268
RRIRMRPPRLPRPRPRPTVHPRP | 0.102
RRIRMRPPRLPRPRPRPTVKPRP | -0.0616
RRIRMRPPRLPRPRPRPTVRPRP | 0.216
